# Entries after “also recorded” stand apart in the source; their conditions may differ.
# Columns and labels:
# IAPP 1-37 [1] = target: T1, IAPP 1-37 (Homo sapiens, UniProt P10997); experiment: Negative stain electron microscopy of IAPP amyloid fibrils; conditions: negatively-stained preparations, IAPP + peptide, molar ratio 1:10
# T1 sequence (P10997 34-70): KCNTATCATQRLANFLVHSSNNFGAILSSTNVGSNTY
# From the text: 2. Negative Stain Electron Microscopy: IAPP amyloid morphology and relative density of the fibrils can be examined by transmission EM techniques. This provides information of the morphology of the aggregates formed (e.g., amorphous, fibrillar, truncated/protofilament structures, and/or abnormal lateral aggregation profiles). In addition, scanning of multiple grids and samples can be performed by an experienced EM technician who will assess the relative amount of fibrils formed in the presence of each inhibitor. This supporting evidence can be used to rank the relative activities of the inhibitors. Aliquots are taken from the samples used for CD analysis, and applied to pioloform coated grids, blotted dry, and stained with phosphotungstic acid (pH 7.0).
# IAPP 1-37 [2] = target: T1, IAPP 1-37; experiment: Circular dichroism (CD): IAPP random coil to β-sheet conformational transition; conditions: for CD activity of modified or truncated tripeptides compared with ANF: significantly lower molar ratios than ANF
# From the text: 1. Circular Dichroism (CD): Amyloidogenic peptides and proteins undergo a conformational transition from a native to β-sheet conformation. […] In the case of peptides such as Aβ and IAPP, the non-fibrillar forms are essentially random coils that subsequently convert to a β-sheet under different conditions of pH and concentration.
# CD provides a global view of the peptide secondary structure over an extended time course that can be used to monitor the amyloid conformational transition (L e. , diagnostic absorption minima for β-conformation at 218 nm). IAPP is initially treated with hexafluroisopropanol (HFIP) and trifluroacetic acid (TFA), to ensure it is in a monomeric form. IAPP 1-37 (50 μM) in the presence of inhibitors (50 μM-1.0 mM) are compared to controls, with spectra collected twice daily for a period of 72 hours. (β-sheet conversion and precipitation occurs at 48-72 hrs depending on conditions used.) Inhibitors can be evaluated for their ability to maintain IAPP in a random or non-β conformation. This can be determined by direct comparisons of the spectra obtained, and by quantitative analyses using deconvolution algorithms (e.g., Jasco J720 spectropolarimeter contained in the inventor's laboratory, and equipped with Spectra Manager).
# [3] = tested on: rat insulinoma line (RIN-1056A) exposed to exogenous IAPP 1-37; experiment: IAPP amyloid toxicity assay in RIN cells (AlamarBlue cell viability); assay type: cell-based; conditions: molar ratio of 1:20 [IAPP:inhibitor]
# Method: 3. IAPP Amyloid Toxicity: Amyloid fibril cytotoxicity may be due to an apoptotic mechanism and/or mechanical disruption of the plasma membrane. The ability of inhibitors to prevent toxicity in cells exposed to exogenous amyloid is another indication of activity that is assessed. A rat insulinoma line (RIN-1056A) having β-cell-like characteristics is exposed to 10 μM IAPP 1-37 with inhibitors added simultaneously to the medium at 1-20 fold excess. IAPP and inhibitors are not pre-mixed, but are added separately to the cell culture medium to maximize the similarities to conditions in vivo.
# Toxicity is assayed both over the short (sampling every 2 hr over an 8-10 hr period) and long term (every 12 hr for a period of 6-7 days). Data from these investigations will indicate if the inhibitors are able to regulate this more physiological action of IAPP.
# full-length IAPP1-37 = target: T2, full-length IAPP1-37 (Homo sapiens, UniProt P10997); conditions: earlier work, Fraser WO 02/24727; cited from earlier work
# T2 construct: When combined with full-length IAPP1-37 at relatively low molar ratios of 1:5 and 1:1
# T2 sequence (P10997 34-70): T1 sequence (P10997 34-70)
Substance,relative level/density and morphology of IAPP amyloid fibrils (EM) (IAPP 1-37 [1]),activity in the RIN-cell toxicity assay using exogenous IAPP [3],inhibitory activity of hexapeptide fragments (full-length IAPP1-37),other results
AGF: tripeptide ANF substituted with G at its second position (Tripeptide derived from human IAPP),significantly reduced density of fibrils,more activity than ANG (SEQ. ID. NO. 27) or ANF (SEQ. ID. NO. 24),–,"CD activity of modified or truncated tripeptides compared with ANF (IAPP 1-37 [2]): similar, but more potent, activities at significantly lower molar ratios"
"ANF: truncated tripeptide of hexapeptide ANFLVH, IAPP residues 13-15 (Tripeptide derived from human IAPP)","reduced the relative levels of fibrils, and altered the morphology of the aggregates which were formed; also recorded: reduced the relative levels of fibrils and altered the morphology of the aggregates which were formed",showed activity; also recorded: greater activity than the tetra- or penta-peptide,–,inhibition of IAPP conformational change from random coil to β-sheet (CD) (IAPP 1-37 [2]; combined with IAPP at a molar ratio of 1:10): inhibited this conformational change
ANFL: tetrapeptide sub-fragment of hexapeptide ANFLVH (Tetrapeptide derived from human IAPP),–,showed activity,–,–
ANFLV: pentapeptide sub-fragment of hexapeptide ANFLVH (Pentapeptide derived from human IAPP),–,showed activity,–,–
"ANFLVH: original hexapeptide from the IAPP 8-20 domain (13-18), disclosed in WO 02/24727 (Hexapeptide derived from human IAPP)",–,–,displayed inhibitory activity,–
ANG: tripeptide ANF substituted with G at its third position (Tripeptide derived from human IAPP),lower activity based upon the presence of multiple aggregate forms,lower activity in the toxicity assay,–,–
"GAILSS: hexapeptide from the IAPP20-29 region, disclosed in WO 02/24727 (Hexapeptide derived from human IAPP)",–,–,displayed inhibitory activity,–
GNF: tripeptide ANF substituted with G at its first position (Tripeptide derived from human IAPP),significantly reduced density of fibrils,more activity than ANG (SEQ. ID. NO. 27) or ANF (SEQ. ID. NO. 24),–,"CD activity of modified or truncated tripeptides compared with ANF (IAPP 1-37 [2]): similar, but more potent, activities at significantly lower molar ratios"
NFL: truncated tripeptide of hexapeptide ANFLVH (Tripeptide derived from human IAPP),active,–,–,"CD activity of modified or truncated tripeptides compared with ANF (IAPP 1-37 [2]): similar, but more potent, activities at significantly lower molar ratios"
"NFLVHS: hexapeptide from the IAPP 8-20 domain, disclosed in WO 02/24727 (Hexapeptide derived from human IAPP)",–,–,displayed inhibitory activity,–
"SNNFGA: hexapeptide from the IAPP20-29 region, disclosed in WO 02/24727 (Hexapeptide derived from human IAPP)",–,–,displayed inhibitory activity,–
